Km data for two proteins are collected here from patent US20030143729A1, “DNA encoding taurine and GABA transporters and uses thereof” (Synaptic Pharmaceutical Corporation, priority 1992, published 2003).

Where “and” joins values, the source holds several entries; their conditions need not be identical. Equal entries are not always repeated.

Substrate in data set [1]: NCCCC(=O)O
As to the kind of experiment: cells, lysate or membranes. To be noted: other: various concentrations of [3H]GABA, 30 seconds; pH 7.4; 37.0 °C.

Substrate in data set [2]: NCCS(=O)(=O)O
As to the kind of experiment: cells, lysate or membranes. To be noted: other: various concentrations of [3H]taurine, 30 seconds, pH 7.4.

B1: GAT-2 (Rattus norvegicus) (protein)
chain: MDNRVSGTTSNGETKPVCPVMEKVEEDGTLEREQWTNKMEFVLSVAGEIIGLGNVWRFPYLCYKNGGGAFFIPYLIFLFTCGIPVFFLETALGQYTNQGGITAWRKICPIFEGIGYASQMIVSLLNVYYIVVLAWALFYLFSSFTTDLPWGSCSHEWNTENCVEFQKTNNSLNVTSENATSPVIEFWERRVLKISDGIQHLGSLRWELVLCLLLAWIICYFCIWKGVKSTGKVVYFTATFPYLMLVVLLIRGVTLPGAAQGIQFYLYPNITRLWDPQVWMDAGTQIFFSFAICLGCLTALGSYNKYHNNCYRDCVALCILNSSTSFVAGFAIFSILGFMSQEQGVPISEVAESGPGLAFIAYPRAVVMLPFSPLWACCFFFMVVLLGLDSQFVCVESLVTALVDMYPRVFRKKNRREILILIVSVVSFFIGLIMLTEGGMYVFQLFDYYAASGMCLLFVAIFESLCVAWVYGASRFYDNIEDMIGYKPWPLIKYCWLFFTPAVCLATFLFSLIKYTPLTYNKKYTYPWWGDALGWLLALSSMVCIPAWSIYKLRTLKGPLRERLRQLVCPAEDLPQKSQPELTSPATPMTSLLRLTELESNC
One may read the Km as the substrate concentration at which the rate is half of its maximum. Take B1: the Km in data set [1] is 4 µM and 8 ± 3 µM.

B2: taurine transporter (rB16a) (Rattus norvegicus) (protein)
chain: MATKEKLQCLKDFHKDILKPSPGKSPGTRPEDEADGKPPQREKWSSKIDFVLSVAGGFVGLGNVWRFPYLCYKNGGGAFLIPYFIFLFGSGLPVFFLEVIIGQYTSEGGITCWEKICPLFSGIGYASIVIVSLLNVYYIVILAWATYYLFQSFQKDLPWAHCNHSWNTPQCMEDTLRRNESHWVSLSAANFTSPVIEFWERNVLSLSSGIDHPGSLKWDLALCLLLVWLVCFFCIWKGVRSTGKVVYFTATFPFAMLLVLLVRGLTLPGAGEGIKFYLYPNISRLEDPQVWIDAGTQIFFSYAICLGAMTSLGSYNKYKYNSYRDCMLLGCLNSGTSFVSGFAIFSILGFMAQEQGVDIADVAESGPGLAFIAYPKAVTMMPLPTFWSILFFIMLLLLGLDSQFVEVEGQITSLVDLYPSFLRKGYRREIFIAIVCSISYLLGLTMVTEGGMYVFQLFDYYAASGVCLLWVAFFECFVIAWIYGGDNLYDGIEDMIGYRPGPWMKYSWAVITPALCVGCFIFSLVKYVPLTYNKVYRYPDWAIGLGWGLALSSMVCIPLVIVILLCRTEGPLRVRIKYLITPREPNRWAVEREGATPFHSRATLMNGALMKPSHVIVETMM
For the protein B2, the Km in data set [2] is 43 ± 6 µM.
